Experimental data: the nanobody polyreactivity screen of Harvey et al. (2022)

Test: yeast display, Sf9 membrane polyspecificity reagent, FACS + sequencing; frameworks hold sequencing errors
In short: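 Polyreactivity labels are assigned by the sorting gate from which each nanobody was recovered. The gates were low and high (top ~1%), set on anti-HA fluorescence for expression and streptavidin fluorescence for reagent binding. Before sorting, galactose-induced (36–48 hours) yeast display cells were stained for 1 hour at 4 °C with 10% biotinylated, detergent-solubilized Sf9 membrane reagent.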

Sequence	polyreactivity (PSR sort gate)
QVQLVESGGGLVQAGGSLRLSCAASGLIFYRNAMGWYRQAPGKERELVAGISASGGRTYYADSVNGRFTISRDNAKNTVYLQMNSLKPEDTAVYYCNRPSIYRYPQRLLGNFWGQGTQVTVSS	high polyreactivity
QVQLVESGGGLVQAGGSLRLSCAASGSNITPNAMGWYRQAPGKERELVAAISSSSDRTYYADSVKGRFTISRDNAKNTVYLQMNSLKPEDTAVYYCAAYAQKRYYWGQGTQVTVSS	high polyreactivity
QVQLVESGGGLVQAGGSLRLSCAASGSTFYDYVMGWYRQAPGKERELVAAITGSGGRTYYADSVKGRFTISRDNAKNTVYLQMNSLKPEDTAVYYCAVRVHYNRVYGRYSPRYDYWGQGTQVTVSS	high polyreactivity
QVQLGESGGGLVQAGGSLRLSCAASGFIFPGYAMGLYRQAPGKERELVAAITGSGGSTYYADSVKGRFTISRDNAKYTVYVQMNSVKTEDTAVDYCGAYVSGYLWGYDYWGHGTQVTVSS	high polyreactivity
QVHLVESGGGLVQAGGSLRLSCAASGSTFSSYAMGWYRQAPGKERELVAAINWSGTRTYYADSVKGRFTISRDNAKNTVYLQMNSLKPEDTAVYYCAAPGDGETADYDYWGQGTQVTVSS	low polyreactivity
QVQLVESGGGLVQAGGSLRLSCAANGYIFLIYDRGWYRQSPGKEMELVAAISNSVGSTYADSVKGRFTISRDNAKNTDYLQMNSLKPEDTAVYYCNADSGPIDGRGGYWGQGTQVTVSS	low polyreactivity
QVQLQQSGDGLVQAVGSLRLSCAPSGSLSGYYSMGWYREAPGKVRELVAGIDAFGSSTNYADCVIGRFTISRDKATNTVYLQMKSLKPEDTAVYYCAARPDGVRLFSYWGQGTQVTESS	low polyreactivity
QFQLVESGGGLVQAGGSLRLSCAASGITFGWYAMGWYRKATGKETELVASISSSGSTNYADSVKGRFTISRDNAKNTVYLQMNSLKPEDTAVYYCNKDYLLRQYYIYVIEGDYWGQGTLVTVSS	low polyreactivity
QVQLVESGGGLVQAGGSLRLSCAASGSIFYRNALGWYRQAPGKERELVAAISSDGSTNYADSVKGRFTISRDNAKNTVYLQMNSLKPEDTAVYYCAAPWTQILDYWGQGTQVTVSS	low polyreactivity
QVQLVESGGGLVQAGGSLRLSCAASGRTYWYYVMGWYRQAPGTERELVAAISSSGGRTYYADSVKGRFTISRDNAKNTVYLQMNSLKPEDTAVYYCNVDAWYPYQGFLVGYYYWGQGTQVTVSS	low polyreactivity
QVHLVESGGGLVQAGGSLRLSCAASGFTFDTYDMGWYRQAPGKERELVAAIDRSGVSTYYADSVKGRFTISRDTAKNTVYLQMNSLKQEDPAVYYCAADLWQYDIASWDYTYDYWGQGTQVTVSS	low polyreactivity
QVQRVESGGGLVQAGGSLRLSCAASGLTFDPKDMGWYRQAPGKERELVAAISWSSGSTYYADSVKGRFTISRDNAKNTVYLQMNSLKPEYTAVYYCAAYFTLLFGTELYDYDYWGQGTQVTVSS	high polyreactivity
QVQLVESGGGLVQAGGSLRLSCAASGSTFDPNTMGWYRQAPGKDRELVAAITSSTASTYYADSVKGRFTISRDNAKNTVYLQMNSLKPEDTAVYYCAADSEQDNLRYYRWVWYYYWGQGTQVTVSS	low polyreactivity
QVQLVESGGGLVQAGGSLRLSCAASGIIIRYYGMGWYRQAPGKERELVARIRWTGGSTYYADSVKGRFTISRDNAKNTVYLQMNSLKPEDTAVYYCAADIWQYSRIANYHPYDYWGQGTQVTVSS	low polyreactivity
QVQLVESGGGLVQAGGSLRLSCAASGRTFYVNTMRWYRQAPGKEREFVARITRGGSTYYADSVKGRFTISRDNAMNTVYLEMNSLKPEDTAFYYCGTDHFPVYSTHVIYEFDYWGQGTQVTVSS	low polyreactivity
QVQHVESVGGLVQAGGSLRLSCAASGSIFDDYAMGWYRPAPGKERELVAAISSSGTSTYYADSVKGRFTISRDNAKNTVYLQMNSLKPEDTAVYYCAARSAILKSGYLMDYWGQGTQVTVSS	low polyreactivity
QVQLVESGGGLVQAGGSLRLSCPASGFIFYDYAMGWYRQAPGKERELVAAISSGGSTNYADSVKGRFTISRDNAKNTVYLQMNSLKPEDTAVYYCAADDRSYATWKRDYDYWGQGTQVTVSS	low polyreactivity
QVQLVESGGGLVQAGGSLRLSCAASGRIFGNYAMGWYRQAPGKESELVAAISGGGSTYYADSVKGRFTISRDNAKNTVYLQMNSLKPEDTAVYYCAARFLWSVFGRKGGYWGQGTQVTVSS	low polyreactivity
QVQLVESGGGLFQAGGSLRLSCAASGRIFGGYAMGWYRQAPGTERELVAAIDWDGGSTYYADSVKGRFTISRDNEKNTVYLQMNSLKPEDTAVYYSNAVKWTWWSSSGDYDYWGQGTQVTVSS	high polyreactivity
QVQLVESGGGLVQAGGSLRLSCAASGSTFRFYAMGWYRQAPGKERELVAAITRSGGGTTYYADSVKGRFTISRDNAKNTVYLQMNSLKPEDTAVYYCAAYLSSLGRKYYYWGQGTQVTVSS	high polyreactivity
QVQLVESGGGLVQAGGSLRLSCAASGRTFYAYAMGWYRQAPGKERELVAAITSGASTYYADSVKGRFTISRDNAKNTVYLQMNRLKPEDTAVYYCAKRVRYYKPGYDYWGQGTQVTVSS	low polyreactivity
QVQLVESGGGLVQAGGSLRLSCAASGSILYYYAMGWYRQAPGKERELVAAISWSGASTYYADSVKGRFTISRDNAKNTVYLQMNSLKPEDTAVYDCATSYTKQGFRYYYWGQGTQVTVSS	high polyreactivity

Sequence	polyreactivity (PSR sort gate)
QVHLVETGGGLVQAGGSLRLSCAASGSIFFVYAMGCYRPAPGKERELVAAISNDGSTNYADSVKGRFTISRDNAKNTVYLQMNCLIPEDTAVYYCAKDTRTKYDYWGQGTQVTVSS	low polyreactivity
QVQLVESGGGLVQAGGSLRLSCAASGRIFKPYAMGWYRQAPGKERELVAAITDGGTTYYADSVKGRFTISRDNAKNTVYLQMNSLKPEDTAVYYCAADLGKLRYDYWGPGTQVTVSS	low polyreactivity
QVQLVESGGGLVQAGGSLRLSCAASGYIFVVNAMGWYRQAPGKERELVAAIDWGGGSTYADSVKGRFTISRDNAKNTVYLQMNSLKPEDTAVYYCAADLWPYPNDYWGQGTQVTVSS	low polyreactivity
QVQLVESGGGLVQAGGSLRLSFAASGRIFGENAMGWYRQAPGKEREFVAVISISDASTYYADSVKGRFTLSRDNAKNTVYLQMNSLKPEDTAVYYWAADLTDFLYVASDYWGQGTQVTVSS	low polyreactivity
QDQLVESGGGLVQAGGSLRLSCAASVSIFASYAMGRYRPAPGKERELVAAISSRGSRTYYADSVKGRFTISRDNAKNTVYLQMNRLKPQDTAVYYCAAYSPDYYNAEFGYWGQGTHVTVSS	high polyreactivity
HVQLVESGGGLVQAGGSLRISCAASGFTFRYYAMGWYRQAAGKEMELVAAITSSGGRTYYADSVKGRFTISRDNAKNTVYLQMNSLKPEDTAVYYCNAAYGYVSRVYYLIEHDYWGHGTQVTVSS	high polyreactivity
QVQLVESGGGLVQAGGRLRVSCAASGFTFNCYTMGGSRQAPGKERELVAAITWSGGSTYYADSVKGRFTISRDNAKNSVYLQMNSLIPEDTAVYYCAVYPYGSQYYALDYWGQGTQVTVSS	high polyreactivity
QVQLVESGGGLVQAGGSLRLSCAASGSIFQWNAMGWYRQAPGKERELVAAISTRGGRTYYADSVKGRFTISRDNAKNTVYLQMNSLKPEDTAVYYCAKQYGSYGRYYKYYYWGQGTQVTVSS	high polyreactivity
QVHLVESGGGLVQAGGSLRLSCAASGSLFYYNAMGWYRPAPGKERDLVAAINSNGGSTYYADTVKGRFTISRDNAKNTVYLQMNSLKPEDTAVYSSAAKYYFNWHRQGYDYWGQGTQVTVSS	high polyreactivity
QVQLVESGGGLVQAGGSLRLSCAATGSIFGKYAMGWSRQAPGKERELVAVITWSGGSTYYADSVKGRFTISRDNAKNTVYLQMNSLKPEDTAVYYCNAANTGSQDYQSIGYNFNYWGQGTQVTVSS	low polyreactivity
QVQLVESGGGLVQAGGSLRLSCAPSGRIFTRYARGWYRQAPGKERELVAVITRSGGSTYYADSVKGRFTISRDNAKNTVYLQMNSLKPEDTAVYYCAAKYYGEMYYWGQGTHVTVSS	low polyreactivity
QVQLVESGGGLVQAGGSLRISCAASGRTFLSYGMGWYRQAPGKERELVATIDDSGSTYYADSVKGRFTISRDNAKNTVYLQMNSLKPEDTAVYYCATDRQVFYWDFWYIEYDYGGQGTQVTVSS	high polyreactivity
QVQLVESGGGLVQAGGSLRLSCAASGFIFAGYVMGWSRQAPGKERELVAAISSGGRTYYADSVKGRFTISRDNAKNTVYLQMNSLKPEDTAVYYCAAARWQVRATEGNYWGQGTQVTVSS	high polyreactivity
QFQHVESGGGLVQAGGSLRLSCAASGNTFYVYAMGWYRQAPGKERELVAGITTSGGSTYYADSVKGRFTISRDNAKNTVYLQMNSLKTEDTAVYYCATDISTSYYYKYSSFYQYDSWGQGTQVTVSS	low polyreactivity
QVQLVESGGGLVQAGGSLRLSCAASGITFRDYAMGWYRQAPGKERELVAAISRSVGSTYYADSVKGRFTISRDNAKNTVYLQMNSLKPEDTAVYYCAALSQREFDYWGQGTQVTVSS	high polyreactivity
QVQLVESGGGLVQAGGSLRLSCAPSGSTFTSYAMGWYRQAPGKERELVAAITYGSGTTYADSVKGRFTISRDNAKNTVYLQMNSLKPEDTAVYYCAADFYYPVLGHGFPTYEYDYWGQGTQVTVSS	low polyreactivity
QVQLVESAGGLVQAGGSLRLSCAASGSIFQGNARGWYRQAPGKERELVAAISQSGGRTYYADSVKGRFTISRDNAKNTVYLQMISLKPEDTAVYYCNTTKVYRLRFDYWGQGTQVTVSS	low polyreactivity
QVQLVESGGGLVQAGGSLRLSCAASGSIFVGYVMGWYRQAPGKERELVAAISRSGGRTYYADSVKGRFTISRDNAKNTVYLQMNSLKPEDTAVYYCAADSYTQPYGSLPHKQRYEYWGQGTQVTVSS	low polyreactivity
QVQLVESVGGLVQAGGNLRLSCAASGIIFSRYALGWYRQAPGKERELVAAITRSGGDTYYADSVKGRFTISRDHAKNTVYLQMNSLKPEDTAVYYCAADRTWYPWVATGYYWGHGTQVTVSS	low polyreactivity
QVQLVESGGGVVQAGGSLRISCDASGRTFWNYAMGWYRQAPGLERELVAVIRFSDGSTYYADSVKGRFTISRDNAKNTVYLQRNSLKPEDTAVYYCAAKGPRRWGSGFDYWGQGTQVTVSS	low polyreactivity
QVQLVESGGGLVQAGGSLRLSCAASGFIFSSYAKGWYRQAPGKERELVAVITRSGRRTYYADSVKGRFTISRDNAKNTFYLQMNSLKPEDTAVYYCNATLPNEVAPNDYWGQGTQVTVSS	high polyreactivity
